From publication PMC2174231 (The Journal of Cell Biology, 1999)

T1: PML wild-type fused to GAL4-DBD (UniProt P29590 1-882)
T1 sequence: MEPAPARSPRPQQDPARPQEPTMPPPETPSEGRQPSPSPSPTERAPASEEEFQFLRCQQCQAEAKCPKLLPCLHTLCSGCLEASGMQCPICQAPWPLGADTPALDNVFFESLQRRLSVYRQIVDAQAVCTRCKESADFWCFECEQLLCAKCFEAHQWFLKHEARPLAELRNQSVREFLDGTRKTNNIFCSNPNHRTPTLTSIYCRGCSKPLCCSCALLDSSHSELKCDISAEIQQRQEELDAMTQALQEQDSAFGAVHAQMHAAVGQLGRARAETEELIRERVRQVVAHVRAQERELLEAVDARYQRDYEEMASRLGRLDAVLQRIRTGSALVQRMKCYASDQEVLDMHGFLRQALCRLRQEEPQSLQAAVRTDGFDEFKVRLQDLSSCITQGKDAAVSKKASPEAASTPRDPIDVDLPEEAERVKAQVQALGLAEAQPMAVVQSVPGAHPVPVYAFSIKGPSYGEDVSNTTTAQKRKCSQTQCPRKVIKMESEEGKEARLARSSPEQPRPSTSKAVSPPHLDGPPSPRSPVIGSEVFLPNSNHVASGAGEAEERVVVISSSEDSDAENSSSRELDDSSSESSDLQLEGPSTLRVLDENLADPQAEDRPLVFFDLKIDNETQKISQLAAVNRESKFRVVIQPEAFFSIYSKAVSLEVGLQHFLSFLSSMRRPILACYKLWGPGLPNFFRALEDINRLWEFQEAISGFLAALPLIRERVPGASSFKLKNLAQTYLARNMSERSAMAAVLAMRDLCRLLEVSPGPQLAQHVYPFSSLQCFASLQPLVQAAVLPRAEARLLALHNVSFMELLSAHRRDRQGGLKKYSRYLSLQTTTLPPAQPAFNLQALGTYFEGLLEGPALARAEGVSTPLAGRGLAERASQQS

B1: Daxx amino acids 488-740 fused to NLS-VP16 (domain or fragment)
chain: AGKDGDKSPMSSLQISNEKNLEPGKQISRSSGEQQNKGRIVSPSLLSEEPLAPSSIDAESNGEQPEELTLEEESPVSQLFELEIEALPLDTPSSVETDISSSRKQSEEPFTTVLENGAGMVSSTSFNGGVSPHNWGDSGPPCKKSRKEKKQTGSGPLGNSYVERQRSVHEKNGKKICTLPSPPSPLASLAPVADSSTRVDSPSHGLVTSSLCIPSPARLSQTPHSQPPRPGTCKTSVATQCDPEEIIVLSDSD
B2: Daxx amino acids 433-740 fused to NLS-VP16 (domain or fragment)
chain: AETDDEDDEESDEEEEEEEEEEEEEATDSEEEEDLEQMQEGQEDDEEEDEEEEAAAGKDGDKSPMSSLQISNEKNLEPGKQISRSSGEQQNKGRIVSPSLLSEEPLAPSSIDAESNGEQPEELTLEEESPVSQLFELEIEALPLDTPSSVETDISSSRKQSEEPFTTVLENGAGMVSSTSFNGGVSPHNWGDSGPPCKKSRKEKKQTGSGPLGNSYVERQRSVHEKNGKKICTLPSPPSPLASLAPVADSSTRVDSPSHGLVTSSLCIPSPARLSQTPHSQPPRPGTCKTSVATQCDPEEIIVLSDSD
B3: Daxx amino acids 625-740 fused to NLS-VP16 (domain or fragment)
chain: SGPPCKKSRKEKKQTGSGPLGNSYVERQRSVHEKNGKKICTLPSPPSPLASLAPVADSSTRVDSPSHGLVTSSLCIPSPARLSQTPHSQPPRPGTCKTSVATQCDPEEIIVLSDSD

Target: T1, PML wild-type fused to GAL4-DBD
Assay: two-hybrid

Row | Binder | fold strength of interaction (β-galactosidase) against full-length Daxx [fold] | fold weaker interaction (β-galactosidase) against Daxx 488-740 [fold weaker]
1 | B1 | ~3 | –
2 | B2 | – | ~20
3 | B3 | ~3 | –
